Results from PMC10433963, “Interactome Analysis Identifies MSMEI_3879 as a Substrate of Mycolicibacterium smegmatis ClpC1” (Microbiology Spectrum, 2023).

Molecular target: T1, ^H7-SUMOClpC1^FLAG (recombinant ClpC1) (M. smegmatis, UniProt A0R574 1-848)
T1 construct: ClpC1 unfoldase, M. smegmatis; used at 0.1 uM (hexamer) in microscale thermophoresis; In the degradation assays (functional rows) ClpC1 stood with ClpP1P2 and its H7-SUMO tag may have been removed; not shown: H7-SUMO, N-terminal, kept; FLAG, C-terminal, kept
T1 sequence (A0R574 whole entry): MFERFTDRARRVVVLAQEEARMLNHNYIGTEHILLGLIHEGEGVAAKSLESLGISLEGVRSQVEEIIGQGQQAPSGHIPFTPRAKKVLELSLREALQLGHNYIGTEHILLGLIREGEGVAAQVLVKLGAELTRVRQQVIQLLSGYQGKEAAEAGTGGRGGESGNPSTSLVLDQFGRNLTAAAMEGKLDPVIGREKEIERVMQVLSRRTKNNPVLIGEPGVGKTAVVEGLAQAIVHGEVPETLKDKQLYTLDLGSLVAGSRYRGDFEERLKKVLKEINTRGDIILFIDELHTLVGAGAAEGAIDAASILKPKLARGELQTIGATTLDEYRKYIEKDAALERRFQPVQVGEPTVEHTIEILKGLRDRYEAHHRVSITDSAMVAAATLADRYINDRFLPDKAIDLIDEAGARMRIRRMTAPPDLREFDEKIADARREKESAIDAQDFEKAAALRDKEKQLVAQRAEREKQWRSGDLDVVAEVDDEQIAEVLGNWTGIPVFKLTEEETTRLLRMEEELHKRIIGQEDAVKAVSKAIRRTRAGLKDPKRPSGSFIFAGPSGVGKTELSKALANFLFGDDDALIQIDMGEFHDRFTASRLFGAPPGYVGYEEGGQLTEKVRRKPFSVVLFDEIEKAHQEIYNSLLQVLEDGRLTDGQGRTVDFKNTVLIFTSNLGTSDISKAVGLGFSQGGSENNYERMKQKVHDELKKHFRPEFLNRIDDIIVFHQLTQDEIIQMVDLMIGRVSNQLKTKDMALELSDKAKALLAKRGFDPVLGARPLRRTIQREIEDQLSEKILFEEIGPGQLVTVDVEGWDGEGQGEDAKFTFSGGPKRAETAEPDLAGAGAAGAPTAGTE
Assay: MST; Monolith NT.115; 0.1 uM ^H7-SUMOClpC1^FLAG (hexamer) with 0.1 uM His Lite OG488-Tris-NTA-Ni dye, partner titrated; fit to a Hill-form binding equation; apparent (Kapp)
Settings: both partners purified

Binder | binding result
XRE (recombinant) (natural protein, M. smegmatis, UniProt A0QQY3 1-142, looked up, H7-SUMO tags were removed with Ulp1 or left intact for microscale thermophoresis; also called Transcriptional regulator, XRE family protein) MAQDENLAAVVSNAAQDIGSFIRAQREAAQVSVRQLAEKAGVSNPYLSQIERGLRKPSADVLNQIAKALRVSAEVLYVRAGILEPSEPSEVRDAIVNDVSITERQKQVLLDIYTSFRQQNEAAGEPEGAAVIPSPDEEPATD | binds
Magnesium chelatase (recombinant) (natural protein, M. smegmatis, UniProt A0R3L1 1-461, looked up, H7-SUMO tags were removed with Ulp1 or left intact for microscale thermophoresis; also called Mg chelatase) MVSQPKDLPRTVGELRASGHRERGVKAEIRENLLAALAERRDVWPGILGFEDTVIPQLERALIAGHDVVLLGERGQGKTRLLRALTGLLDEWTPVIAGSELGEHPYSPITPESIRRAADSGDDLPVEWRHRSERYTEKLATPDTSVADLVGDIDPIKVAEGRSLGDPETIAYGLIPRAHRGIVAVNELPDLAERIQVAMLNVMEERDIQVRGYTLRLPLDVLVVASANPEDYTNRGRIITPLKDRFGAEIRTHYPLELEAEVGVIRQEAELAAEVPEYLLAVLARFARNLRESNSIDQRSGVSARFAIAAAETVAASARHRAAILGEDDPVARVVDLGTVIDVLRGKLEFETGEEGREQAVLEHLLRRATADTAQRLLGGIDVGPLVAAIEEGSPVTTGERVSAKDVVAALPDLPAIDAIAHRLNAVSVGQRAAAIELALEALYLAKRIDKVSGEGETVYG | binds
DnaJ1 (recombinant) (natural protein, M. smegmatis, UniProt A0QQD0 1-390, looked up, H7-SUMO tags were removed with Ulp1 or left intact for microscale thermophoresis; also called Chaperone protein DnaJ1) MAQREWVEKDFYKELGVSSDASADEIKKAYRKLAAELHPDRNSDPGAAERFKAVSEANSVLSDPAKRKEYDETRRLFAGGFGRRFNQGGGGFGGGFGSDGVEFNLGDLFDAAGQTGGANIGDLFGGLFGRGPQQRPSRPRRGNDLETETELSFLEATKGVAMPLRLTSPAPCTNCHGSGARPGTSPKVCPSCNGSGVISRNQGAFGFSEPCTECRGSGSIIEHPCQECRGTGVTTRTRTINVRIPPGVEDGQRIRLAGQGEAGLRGAPSGDLYVTVHVRPDKVFGRDGDDLTVTVPVSFHELALGTTLSVPTLDGKVGVRVPKGTSDGRILRVRGRGVPKRSGGHGDLLVTVKVAVPPNLEGEAAEALEAYAKAERASGFDPRAGWAGNV | binds
